Source: article PMC7026398, “Structural and functional insight into the effect of AFF4 dimerization on activation of HIV-1 proviral transcription” (Cell Discovery, 2020)

What was measured:
[1] = target: Flag-AFF4 F1014A, full length (human) (UniProt Q9UHB7)
[2] = target: Flag-AFF4 Y1096A, full length (human) (UniProt Q9UHB7)
[3] = target: the molecule itself; experiment: SEC; analytical gel filtration, Superdex 75 10/300 increase, 25 mM Tris pH 8.0, 150 mM NaCl, 2 mM DTT; 6 mg/ml, 100 μl injected; self-association, dimer or monomer by elution volume

B1: Flag-AFF4 F1014A, full length (natural protein)
chain: MNREDRNVLRMKERERRNQEIQQGEDAFPPSSPLFAEPYKVTSKEDKLSSRIQSMLGNYDEMKDFIGDRSIPKLVAIPKPTVPPSADEKSNPNFFEQRHGGSHQSSKWTPVGPAPSTSQSQKRSSGLQSGHSSQRTSAGSSSGTNSSGQRHDRESYNNSGSSSRKKGQHGSEHSKSRSSSPGKPQAVSSLNSSHSRSHGNDHHSKEHQRSKSPRDPDANWDSPSRVPFSSGQHSTQSFPPSLMSKSNSMLQKPTAYVRPMDGQESMEPKLSSEHYSSQSHGNSMTELKPSSKAHLTKLKIPSQPLDASASGDVSCVDEILKEMTHSWPPPLTAIHTPCKTEPSKFPFPTKESQQSNFGTGEQKRYNPSKTSNGHQSKSMLKDDLKLSSSEDSDGEQDCDKTMPRSTPGSNSEPSHHNSEGADNSRDDSSSHSGSESSSGSDSESESSSSDSEANEPSQSASPEPEPPPTNKWQLDNWLNKVNPHKVSPASSVDSNIPSSQGYKKEGREQGTGNSYTDTSGPKETSSATPGRDSKTIQKGSESGRGRQKSPAQSDSTTQRRTVGKKQPKKAEKAAAEEPRGGLKIESETPVDLASSMPSSRHKAATKGSRKPNIKKESKSSPRPTAEKKKYKSTSKSSQKSREIIETDTSSSDSDESESLPPSSQTPKYPESNRTPVKPSSVEEEDSFFRQRMFSPMEEKELLSPLSEPDDRYPLIVKIDLNLLTRIPGKPYKETEPPKGEKKNVPEKHTREAQKQASEKVSNKGKRKHKNEDDNRASESKKPKTEDKNSAGHKPSSNRESSKQSAAKEKDLLPSPAGPVPSKDPKTEHGSRKRTISQSSSLKSSSNSNKETSGSSKNSSSTSKQKKTEGKTSSSSKEVKEKAPSSSSNCPPSAPTLDSSKPRRTKLVFDDRNYSADHYLQEAKKLKHNADALSDRFEKAVYYLDAVVSFIECGNALEKNAQESKSPFPMYSETVDLIKYTMKLKNYLAPDATAADKRLTVLCLRCESLLYLRLAKLKKENALKYSKTLTEHLKNSYNNSQAPSPGLGSKAVGMPSPVSPKLSPGNSGNYSSGASSASASGSSVTIPQKIHQMAASYVQVTSNFLYATEIWDQAEQLSKEQKEFFAELDKVMGPLIFNASIMTDLVRYTRQGLHWLRQDAKLIS
**Q.** For B1, which HIV-LTR-luciferase reporter in NH1 cells, overexpressed Flag-AFF4 mutant against wild type (% less than wild type) [1] is on record?
**A.** Its HIV-LTR-luciferase reporter in NH1 cells, overexpressed Flag-AFF4 mutant against wild type (% less than wild type) is 10.

B2: Flag-AFF4 Y1096A, full length (natural protein)
chain: MNREDRNVLRMKERERRNQEIQQGEDAFPPSSPLFAEPYKVTSKEDKLSSRIQSMLGNYDEMKDFIGDRSIPKLVAIPKPTVPPSADEKSNPNFFEQRHGGSHQSSKWTPVGPAPSTSQSQKRSSGLQSGHSSQRTSAGSSSGTNSSGQRHDRESYNNSGSSSRKKGQHGSEHSKSRSSSPGKPQAVSSLNSSHSRSHGNDHHSKEHQRSKSPRDPDANWDSPSRVPFSSGQHSTQSFPPSLMSKSNSMLQKPTAYVRPMDGQESMEPKLSSEHYSSQSHGNSMTELKPSSKAHLTKLKIPSQPLDASASGDVSCVDEILKEMTHSWPPPLTAIHTPCKTEPSKFPFPTKESQQSNFGTGEQKRYNPSKTSNGHQSKSMLKDDLKLSSSEDSDGEQDCDKTMPRSTPGSNSEPSHHNSEGADNSRDDSSSHSGSESSSGSDSESESSSSDSEANEPSQSASPEPEPPPTNKWQLDNWLNKVNPHKVSPASSVDSNIPSSQGYKKEGREQGTGNSYTDTSGPKETSSATPGRDSKTIQKGSESGRGRQKSPAQSDSTTQRRTVGKKQPKKAEKAAAEEPRGGLKIESETPVDLASSMPSSRHKAATKGSRKPNIKKESKSSPRPTAEKKKYKSTSKSSQKSREIIETDTSSSDSDESESLPPSSQTPKYPESNRTPVKPSSVEEEDSFFRQRMFSPMEEKELLSPLSEPDDRYPLIVKIDLNLLTRIPGKPYKETEPPKGEKKNVPEKHTREAQKQASEKVSNKGKRKHKNEDDNRASESKKPKTEDKNSAGHKPSSNRESSKQSAAKEKDLLPSPAGPVPSKDPKTEHGSRKRTISQSSSLKSSSNSNKETSGSSKNSSSTSKQKKTEGKTSSSSKEVKEKAPSSSSNCPPSAPTLDSSKPRRTKLVFDDRNYSADHYLQEAKKLKHNADALSDRFEKAVYYLDAVVSFIECGNALEKNAQESKSPFPMYSETVDLIKYTMKLKNYLAPDATAADKRLTVLCLRCESLLYLRLFKLKKENALKYSKTLTEHLKNSYNNSQAPSPGLGSKAVGMPSPVSPKLSPGNSGNYSSGASSASASGSSVTIPQKIHQMAASAVQVTSNFLYATEIWDQAEQLSKEQKEFFAELDKVMGPLIFNASIMTDLVRYTRQGLHWLRQDAKLIS
**Q.** Which HIV-LTR-luciferase reporter in NH1 cells, overexpressed Flag-AFF4 mutant against wild type (fold less than wild type) [2] does the source give for B2 here?
**A.** The HIV-LTR-luciferase reporter in NH1 cells, overexpressed Flag-AFF4 mutant against wild type (fold less than wild type) was 1.

B3: AFF1-THD (953-1210), wild type (domain or fragment, UniProt P51825 953-1210, looked up)
chain: GKPQVKFDKQQADLHMREAKKMKQKAELMTDRVGKAFKYLEAVLSFIECGIATESESQSSKSAYSVYSETVDLIKFIMSLKSFSDATAPTQEKIFAVLCMRCQSILNMAMFRCKKDIAIKYSRTLNKHFESSSKVAQAPSPCIASTGTPSPLSPMPSPASSVGSQSSAGSVGSSGVAATISTPVTIQNMTSSYVTITSHVLTAFDLWEQAEALTRKNKEFFARLSTNVCTLALNSSLVDLVHYTRQGFQQLQELTKTP
notes: AFF1 THD, residues 953-1210; the limits 953-1210 fit human AFF1; also called wild-type AFF1-THD; source: E. coli BL21 (DE3), purified (Ni-NTA, Hi-Trap SP HP, TEV digestion, Superdex 200); not shown: His6, N-terminal, cleaved
**Q.** With B3 as the binder, how does the “stoichiometry N” value [3] read?
**A.** Its value is 2.

B4: AFF1-THD Y1145A (domain or fragment, UniProt P51825 953-1210, looked up)
chain: GKPQVKFDKQQADLHMREAKKMKQKAELMTDRVGKAFKYLEAVLSFIECGIATESESQSSKSAYSVYSETVDLIKFIMSLKSFSDATAPTQEKIFAVLCMRCQSILNMAMFRCKKDIAIKYSRTLNKHFESSSKVAQAPSPCIASTGTPSPLSPMPSPASSVGSQSSAGSVGSSGVAATISTPVTIQNMTSSAVTITSHVLTAFDLWEQAEALTRKNKEFFARLSTNVCTLALNSSLVDLVHYTRQGFQQLQELTKTP
notes: AFF1 THD, residues 953-1210, with Y1145A; also called AFF1^Y1145A; source: E. coli BL21 (DE3), purified (Ni-NTA, Hi-Trap SP HP, TEV digestion, Superdex 200); not shown: His6, N-terminal, cleaved
**Q.** Does B4 bind [3]?
**A.** Result: binds

B5: AFF1-THD F1063A (domain or fragment, UniProt P51825 953-1210, looked up)
chain: GKPQVKFDKQQADLHMREAKKMKQKAELMTDRVGKAFKYLEAVLSFIECGIATESESQSSKSAYSVYSETVDLIKFIMSLKSFSDATAPTQEKIFAVLCMRCQSILNMAMARCKKDIAIKYSRTLNKHFESSSKVAQAPSPCIASTGTPSPLSPMPSPASSVGSQSSAGSVGSSGVAATISTPVTIQNMTSSYVTITSHVLTAFDLWEQAEALTRKNKEFFARLSTNVCTLALNSSLVDLVHYTRQGFQQLQELTKTP
notes: AFF1 THD, residues 953-1210, with F1063A; also called AFF1^F1063A; source: E. coli BL21 (DE3), purified (Ni-NTA, Hi-Trap SP HP, TEV digestion, Superdex 200); not shown: His6, N-terminal, cleaved
**Q.** Does B5 bind [3]?
**A.** Result: binds

B6: AFF1-THD F1063A+Y1145A (domain or fragment, UniProt P51825 953-1210, looked up)
chain: GKPQVKFDKQQADLHMREAKKMKQKAELMTDRVGKAFKYLEAVLSFIECGIATESESQSSKSAYSVYSETVDLIKFIMSLKSFSDATAPTQEKIFAVLCMRCQSILNMAMARCKKDIAIKYSRTLNKHFESSSKVAQAPSPCIASTGTPSPLSPMPSPASSVGSQSSAGSVGSSGVAATISTPVTIQNMTSSAVTITSHVLTAFDLWEQAEALTRKNKEFFARLSTNVCTLALNSSLVDLVHYTRQGFQQLQELTKTP
notes: AFF1 THD, residues 953-1210, with F1063A and Y1145A; source: E. coli BL21 (DE3), purified (Ni-NTA, Hi-Trap SP HP, TEV digestion, Superdex 200); not shown: His6, N-terminal, cleaved
**Q.** Does B6 bind [3]?
**A.** Result: binds

B7: human AFF4-THD (902-1163), wild type (domain or fragment, UniProt Q9UHB7 902-1163, looked up)
chain: RRTKLVFDDRNYSADHYLQEAKKLKHNADALSDRFEKAVYYLDAVVSFIECGNALEKNAQESKSPFPMYSETVDLIKYTMKLKNYLAPDATAADKRLTVLCLRCESLLYLRLFKLKKENALKYSKTLTEHLKNSYNNSQAPSPGLGSKAVGMPSPVSPKLSPGNSGNYSSGASSASASGSSVTIPQKIHQMAASYVQVTSNFLYATEIWDQAEQLSKEQKEFFAELDKVMGPLIFNASIMTDLVRYTRQGLHWLRQDAKLIS
notes: AFF4 THD (TPRL with Handle Region Dimerization Domain, C-terminal homology domain), human, residues 902-1163; A selenomethionyl form was used for phasing only; The general purification text tells of TEV digestion and removal of the His6-tag, but only the N-terminal tag of AFF1-THD is called removable; also called AFF-THD; THD of AFF4; source: E. coli BL21 (DE3), purified (Ni-NTA, Hi-Trap SP HP, …)
**Q.** B7 was tested. Which “stoichiometry N” value [3] did it give?
**A.** The value was 2.

B8: AFF4-THD S1025A (domain or fragment, human, UniProt Q9UHB7 902-1163, looked up)
chain: RRTKLVFDDRNYSADHYLQEAKKLKHNADALSDRFEKAVYYLDAVVSFIECGNALEKNAQESKSPFPMYSETVDLIKYTMKLKNYLAPDATAADKRLTVLCLRCESLLYLRLFKLKKENALKYAKTLTEHLKNSYNNSQAPSPGLGSKAVGMPSPVSPKLSPGNSGNYSSGASSASASGSSVTIPQKIHQMAASYVQVTSNFLYATEIWDQAEQLSKEQKEFFAELDKVMGPLIFNASIMTDLVRYTRQGLHWLRQDAKLIS
notes: AFF4 THD, human, residues 902-1163, with S1025A; PDB 6K7P is the wild-type parent of the same limits; source: E. coli BL21 (DE3), purified (Ni-NTA, Hi-Trap SP HP, Superdex 200)
**Q.** Does B8 bind [3]?
**A.** Result: binds

B9: AFF4-THD T1100A+Y1096F (domain or fragment, human, UniProt Q9UHB7 902-1163, looked up)
chain: RRTKLVFDDRNYSADHYLQEAKKLKHNADALSDRFEKAVYYLDAVVSFIECGNALEKNAQESKSPFPMYSETVDLIKYTMKLKNYLAPDATAADKRLTVLCLRCESLLYLRLFKLKKENALKYSKTLTEHLKNSYNNSQAPSPGLGSKAVGMPSPVSPKLSPGNSGNYSSGASSASASGSSVTIPQKIHQMAASFVQVASNFLYATEIWDQAEQLSKEQKEFFAELDKVMGPLIFNASIMTDLVRYTRQGLHWLRQDAKLIS
notes: AFF4 THD, human, residues 902-1163, with T1100A and Y1096F; PDB 6K7P is the wild-type parent of the same limits; source: E. coli BL21 (DE3), purified (Ni-NTA, Hi-Trap SP HP, Superdex 200)
**Q.** Does B9 bind [3]?
**A.** Result: binds

B10: AFF4-THD V1097A (domain or fragment, human, UniProt Q9UHB7 902-1163, looked up)
chain: RRTKLVFDDRNYSADHYLQEAKKLKHNADALSDRFEKAVYYLDAVVSFIECGNALEKNAQESKSPFPMYSETVDLIKYTMKLKNYLAPDATAADKRLTVLCLRCESLLYLRLFKLKKENALKYSKTLTEHLKNSYNNSQAPSPGLGSKAVGMPSPVSPKLSPGNSGNYSSGASSASASGSSVTIPQKIHQMAASYAQVTSNFLYATEIWDQAEQLSKEQKEFFAELDKVMGPLIFNASIMTDLVRYTRQGLHWLRQDAKLIS
notes: AFF4 THD, human, residues 902-1163, with V1097A; PDB 6K7P is the wild-type parent of the same limits; also called AFF4-THD^Val1097A; Val1097A; source: E. coli BL21 (DE3), purified (Ni-NTA, Hi-Trap SP HP, Superdex 200)
**Q.** Does B10 bind [3]?
**A.** Result: binds

B11: AFF4-THD Y1024A (domain or fragment, human, UniProt Q9UHB7 902-1163, looked up)
chain: RRTKLVFDDRNYSADHYLQEAKKLKHNADALSDRFEKAVYYLDAVVSFIECGNALEKNAQESKSPFPMYSETVDLIKYTMKLKNYLAPDATAADKRLTVLCLRCESLLYLRLFKLKKENALKASKTLTEHLKNSYNNSQAPSPGLGSKAVGMPSPVSPKLSPGNSGNYSSGASSASASGSSVTIPQKIHQMAASYVQVTSNFLYATEIWDQAEQLSKEQKEFFAELDKVMGPLIFNASIMTDLVRYTRQGLHWLRQDAKLIS
notes: AFF4 THD, human, residues 902-1163, with Y1024A; PDB 6K7P is the wild-type parent of the same limits; source: E. coli BL21 (DE3), purified (Ni-NTA, Hi-Trap SP HP, Superdex 200)
**Q.** Does B11 bind [3]?
**A.** Result: binds
